The labels stand for the following.
B1: glmS ribozyme (parent)
chain: AUAAAAGCGCCAGAACUACAGAAAUGUAGUUGACGAGGAGGAGGUUUAUCGAAUUUUCGGCGGAUGCCUCCAAA

Common to all, as to conditions: with glucosamine-6-phosphate
Variants of B1 are the subject of data set [1]. Nature of the data set: self-cleavage kobs at 40 uM GlcN6P; higher = faster cleavage; RNA array. In a few lines:
(§1)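 Tiles bearing barcoded ribozyme variants, transcribed in situ by E. coli RNA polymerase on sequenced MiSeq chips, were imaged over ~14 h at 37 °C using a hybridised Cy3 probe. Glucosamine-6-phosphate was supplied at 40 μM to 10 mM in HEPES/KCl/Mg(OAc)2 buffer. kobs came from one- or two-exponential decay fits to normalised per-tile medians, and weighted Michaelis–Menten fits then provided kcat and KM.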

Variants of B1 are the subject of data set [2]. Nature of the data set: self-cleavage kobs at 160 uM GlcN6P; higher = faster cleavage; RNA array. An outline of the steps: as §1
Data set [3] covers variants of B1. Description: self-cleavage kobs at 2500 uM GlcN6P; higher = faster cleavage; RNA array. In a few lines:
as §1

In data set [4] the parent is B1. Nature of the data set: self-cleavage kobs at 10000 uM GlcN6P; higher = faster cleavage; RNA array. An outline of the steps: as §1
Data set [5] covers variants of B1. Nature of the data set: self-cleavage kobs at 640 uM GlcN6P; higher = faster cleavage; RNA array. In a few lines: as §1

± gives the standard error. Variants at the floor of the assay were thinned out. Bounds are passed on as bounds.

From the supplement of paper PMC7125110 come the findings set out here.

A6U U49C: the “self-cleavage kobs at 40 uM GlcN6P” value with glucosamine-6-phosphate [1] was below 1e-05 s⁻¹. For the same variant, in the data set with glucosamine-6-phosphate [2], the “self-cleavage kobs at 160 uM GlcN6P” value is below 1e-05 s⁻¹. Moreover, in the data set with glucosamine-6-phosphate [3], the “self-cleavage kobs at 2500 uM GlcN6P” value is below 1e-05 s⁻¹. Besides, in the data set with glucosamine-6-phosphate [4], the “self-cleavage kobs at 10000 uM GlcN6P” value is below 1e-05 s⁻¹.
Take U54A C71A: the “self-cleavage kobs at 40 uM GlcN6P” value in the data set with glucosamine-6-phosphate [1] was 0.000351 ± 6.3e-05 s⁻¹. Moreover, in the data set with glucosamine-6-phosphate [2], the “self-cleavage kobs at 160 uM GlcN6P” value was determined as 0.000583 ± 8.5e-05 s⁻¹. Besides, the “self-cleavage kobs at 640 uM GlcN6P” value in the data set with glucosamine-6-phosphate [5] came out at 0.000818 ± 0.00011 s⁻¹. The “self-cleavage kobs at 2500 uM GlcN6P” value with glucosamine-6-phosphate [3] was 0.00847 ± 0.0023 s⁻¹. The “self-cleavage kobs at 10000 uM GlcN6P” value with glucosamine-6-phosphate [4] was 0.0109 ± 0.0026 s⁻¹.
As for A12G A33G U57G, the “self-cleavage kobs at 40 uM GlcN6P” value with glucosamine-6-phosphate [1] is below 1e-05 s⁻¹.
Regarding G7A U47C, the “self-cleavage kobs at 40 uM GlcN6P” value in the data set with glucosamine-6-phosphate [1] was below 1e-05 s⁻¹. In addition, the “self-cleavage kobs at 160 uM GlcN6P” value in the data set with glucosamine-6-phosphate [2] was below 1e-05 s⁻¹. The “self-cleavage kobs at 640 uM GlcN6P” value with glucosamine-6-phosphate [5] is below 1e-05 s⁻¹.
C11U A36G C50G: the “self-cleavage kobs at 40 uM GlcN6P” value with glucosamine-6-phosphate [1] is 8.31e-05 ± 2.8e-05 s⁻¹. Further, the “self-cleavage kobs at 640 uM GlcN6P” value with glucosamine-6-phosphate [5] is 0.000352 ± 0.00014 s⁻¹. Also, the “self-cleavage kobs at 10000 uM GlcN6P” value with glucosamine-6-phosphate [4] amounted to 4.94e-05 ± 1.5e-05 s⁻¹.
Consider C10A A36U C68G, for which the “self-cleavage kobs at 40 uM GlcN6P” value with glucosamine-6-phosphate [1] came out at 8.85e-05 ± 2.9e-05 s⁻¹. Besides, the “self-cleavage kobs at 10000 uM GlcN6P” value with glucosamine-6-phosphate [4] was determined as 6.62e-05 ± 2.1e-05 s⁻¹.
Turning to A6U A15U G63A C70U, the “self-cleavage kobs at 40 uM GlcN6P” value with glucosamine-6-phosphate [1] is below 1e-05 s⁻¹.
As to A48G G60C C61G, the “self-cleavage kobs at 40 uM GlcN6P” value with glucosamine-6-phosphate [1] was below 1e-05 s⁻¹.
For G7U A14G G32C A39U, in the data set with glucosamine-6-phosphate [1], the “self-cleavage kobs at 40 uM GlcN6P” value is below 1e-05 s⁻¹.
As to C8G A15G, the “self-cleavage kobs at 40 uM GlcN6P” value with glucosamine-6-phosphate [1] is below 1e-05 s⁻¹. For the same variant, the “self-cleavage kobs at 160 uM GlcN6P” value with glucosamine-6-phosphate [2] was below 1e-05 s⁻¹. Further, the “self-cleavage kobs at 640 uM GlcN6P” value with glucosamine-6-phosphate [5] was below 1e-05 s⁻¹. Moreover, the “self-cleavage kobs at 2500 uM GlcN6P” value in the data set with glucosamine-6-phosphate [3] was below 1e-05 s⁻¹. In addition, the “self-cleavage kobs at 10000 uM GlcN6P” value with glucosamine-6-phosphate [4] is below 1e-05 s⁻¹.
For U30A G38C A52G U69A, the “self-cleavage kobs at 40 uM GlcN6P” value with glucosamine-6-phosphate [1] is below 1e-05 s⁻¹. Further, the “self-cleavage kobs at 2500 uM GlcN6P” value in the data set with glucosamine-6-phosphate [3] was below 1e-05 s⁻¹. The “self-cleavage kobs at 10000 uM GlcN6P” value with glucosamine-6-phosphate [4] was below 1e-05 s⁻¹.
Regarding G13A G60U A64C, the “self-cleavage kobs at 40 uM GlcN6P” value with glucosamine-6-phosphate [1] was below 1e-05 s⁻¹.
Take A14G U31C G41C G63A: the “self-cleavage kobs at 40 uM GlcN6P” value with glucosamine-6-phosphate [1] was below 1e-05 s⁻¹. Besides, in the data set with glucosamine-6-phosphate [4], the “self-cleavage kobs at 10000 uM GlcN6P” value was below 1e-05 s⁻¹.
With G9U A39U, the “self-cleavage kobs at 40 uM GlcN6P” value with glucosamine-6-phosphate [1] was below 1e-05 s⁻¹.
For the variant G32C A36G C61U U69A, the “self-cleavage kobs at 40 uM GlcN6P” value in the data set with glucosamine-6-phosphate [1] was below 1e-05 s⁻¹.
On to C11U U30A A48G G59C A64G, for which the “self-cleavage kobs at 40 uM GlcN6P” value with glucosamine-6-phosphate [1] was below 1e-05 s⁻¹. The “self-cleavage kobs at 2500 uM GlcN6P” value with glucosamine-6-phosphate [3] was below 1e-05 s⁻¹. Moreover, the “self-cleavage kobs at 10000 uM GlcN6P” value in the data set with glucosamine-6-phosphate [4] was below 1e-05 s⁻¹.
For C61U A64G C70G, in the data set with glucosamine-6-phosphate [1], the “self-cleavage kobs at 40 uM GlcN6P” value was below 1e-05 s⁻¹.
With A6C G40C, in the data set with glucosamine-6-phosphate [1], the “self-cleavage kobs at 40 uM GlcN6P” value was below 1e-05 s⁻¹. The “self-cleavage kobs at 640 uM GlcN6P” value in the data set with glucosamine-6-phosphate [5] is below 1e-05 s⁻¹. In addition, in the data set with glucosamine-6-phosphate [3], the “self-cleavage kobs at 2500 uM GlcN6P” value was below 1e-05 s⁻¹.
On to C10A G51C, for which, in the data set with glucosamine-6-phosphate [1], the “self-cleavage kobs at 40 uM GlcN6P” value was below 1e-05 s⁻¹. In addition, the “self-cleavage kobs at 640 uM GlcN6P” value with glucosamine-6-phosphate [5] was below 1e-05 s⁻¹. Further, in the data set with glucosamine-6-phosphate [4], the “self-cleavage kobs at 10000 uM GlcN6P” value is below 1e-05 s⁻¹.
In the case of U31G C68A, the “self-cleavage kobs at 40 uM GlcN6P” value with glucosamine-6-phosphate [1] is below 1e-05 s⁻¹. For the same variant, the “self-cleavage kobs at 640 uM GlcN6P” value with glucosamine-6-phosphate [5] was determined as 3.5e-05 ± 1.6e-05 s⁻¹. Further, the “self-cleavage kobs at 2500 uM GlcN6P” value in the data set with glucosamine-6-phosphate [3] was determined as 8.49e-05 ± 1.9e-05 s⁻¹.
For C10U C16G G29U, the “self-cleavage kobs at 40 uM GlcN6P” value in the data set with glucosamine-6-phosphate [1] is below 1e-05 s⁻¹.
On to A6G A14U U31A U57G, for which the “self-cleavage kobs at 40 uM GlcN6P” value with glucosamine-6-phosphate [1] was below 1e-05 s⁻¹. In addition, the “self-cleavage kobs at 160 uM GlcN6P” value in the data set with glucosamine-6-phosphate [2] was below 1e-05 s⁻¹. In the data set with glucosamine-6-phosphate [5], the “self-cleavage kobs at 640 uM GlcN6P” value is below 1e-05 s⁻¹. Besides, the “self-cleavage kobs at 10000 uM GlcN6P” value with glucosamine-6-phosphate [4] is below 1e-05 s⁻¹.
A12C U49C U56G C58G: the “self-cleavage kobs at 40 uM GlcN6P” value with glucosamine-6-phosphate [1] is below 1e-05 s⁻¹. For the same variant, in the data set with glucosamine-6-phosphate [5], the “self-cleavage kobs at 640 uM GlcN6P” value was below 1e-05 s⁻¹. Moreover, in the data set with glucosamine-6-phosphate [4], the “self-cleavage kobs at 10000 uM GlcN6P” value was below 1e-05 s⁻¹.
As to U30G C70U, in the data set with glucosamine-6-phosphate [1], the “self-cleavage kobs at 40 uM GlcN6P” value stood at 0.000299 ± 3.2e-05 s⁻¹. Also, the “self-cleavage kobs at 160 uM GlcN6P” value with glucosamine-6-phosphate [2] is 0.000471 ± 8.6e-05 s⁻¹. Besides, the “self-cleavage kobs at 640 uM GlcN6P” value in the data set with glucosamine-6-phosphate [5] was 0.00108 ± 0.00014 s⁻¹. For the same variant, the “self-cleavage kobs at 2500 uM GlcN6P” value in the data set with glucosamine-6-phosphate [3] stood at 0.00367 ± 0.00096 s⁻¹. In addition, the “self-cleavage kobs at 10000 uM GlcN6P” value with glucosamine-6-phosphate [4] was 0.00516 ± 0.00081 s⁻¹.
Consider G32U A48U C61U G63U C67U, for which the “self-cleavage kobs at 40 uM GlcN6P” value with glucosamine-6-phosphate [1] was below 1e-05 s⁻¹. The “self-cleavage kobs at 640 uM GlcN6P” value with glucosamine-6-phosphate [5] was below 1e-05 s⁻¹. For the same variant, in the data set with glucosamine-6-phosphate [4], the “self-cleavage kobs at 10000 uM GlcN6P” value is below 1e-05 s⁻¹.
